# Measurements published in the nanobody polyreactivity screen of Harvey et al. (2022).
# Assay: yeast display, Sf9 membrane polyspecificity reagent, FACS + sequencing; frameworks hold sequencing errors
# In short: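 Sorting gates, low and high (top ~1%), were placed on anti-HA fluorescence to track expression and on streptavidin fluorescence to track reagent binding. A clone's polyreactivity label is taken from the gate it came out of. The reagent was 10% biotinylated, detergent-solubilized Sf9 membrane, applied for 1 hour at 4 °C to galactose-induced yeast display cells.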
row,Sequence,polyreactivity (PSR sort gate)
1,QVQLVESGGGLDQPGGSLRLSCAASGRIFRTYAMGWYRQAPGKQRELVAAINSVHRTYYADSVKGRFTITRDNAKNTVNLQMYCQKPEDSAVYYCNARYVLKVSQYGYWGQGTQVTVSS,high polyreactivity
2,QVQLVESGGGLVQAGGSLRLSCAASGSNFDLNAMGLYRQAPGKERELVAAISSGGGTYYADSVKGRFTIARDNAKNTVYLQMNSLKPEDTAVYYCNRVTRWTYNYWGQGTQVTVSS,high polyreactivity
3,QVQLVESGGGLVQAGGSLRLSCAASGSIFEGNGMGWYRQAPGKERELVAAITFRSGSTYYADSVKGRFTISRDNAKNTVYLQMNSLKPEDTAVYYCAADEYYEVSAYDYWGQGTQVTVSS,low polyreactivity
4,QVQLVESGGGLVQAGGSLRLSCAASGLTFGDYAMGWYRQAPGKERELVAVISRSGGSTYYADSVKGRFTISRDNAKNTVYLQMNSLKTEDTAVYYCDKDAGLQKYHHDYWGQGTQVTVSS,low polyreactivity
5,QVQLVESGGGLVQAGGSLRLTCAASGFIFKFYAMGWSRQAPGKEREVVAAITSSGGSTYYADSVKGRFTISRDNAKNTVYLQMNSLKPEDTAVYYCAAQFPGVYYYIYDYWGQGTQVTVSS,high polyreactivity
6,QVQLVESGGGLVQAGGSLRLSCPASGSNLYPYAMGSSTQPPATEREMVATISYSVVSTYYAESVKGRFTISRDNAKNTVYLQMNSLKPEDTAVYYCADKSRSSKYVYWGQGTQVSVSS,high polyreactivity
7,QVQLVESGGGLVQAGGSLRLSCAASGFIFEKYTMGWYRQAPGKERELVAAITWNGGSTYYADSVKGRFTISRDNAKNTVYLQMNSLKPEDTAVYYCAARVGWNKRRYDYWGQGTQVNVSS,low polyreactivity
8,QVQLVESGGGLVQAGGSLRLSCAASGRTFPRNAMGWYRQAPGKERELVARINWSGGSTTYADSVKGRFTISRDNAKNTVYLQMNSLKPEDTAVYYCNARPYTSSFTKYGPSGYWGQGTQVTVSS,high polyreactivity
9,QVQLVESGGGLVQAGGSLRLSCAASGITFPYYAMGWSRQAPGKERELVAAISSSGGSSYYADSVKGRFTISRDNAKNTVYLQMNSLKPEDTAVYYCATRNTRFHLDYWGQGTQVTVSS,high polyreactivity
10,QVQLVESGGGLVQAGGSLRLSCAASGSTFLSNAMGWYRPAPGKERELVAAITTSGTSTFDADSVKGRFTISRDNAKTTVYLQMNSLKPEDTAVYCAKDYLPYLHFVAPSTGDYDYWGQGTQVTVSS,low polyreactivity
11,QVQLVESGGGLVQAGGSLRLSCAASGFIFVPYAMGWYRQAPGKERELVAAITWSGASTYYADSVKGRFTISRDNAKNTVYLQMNRLKPEDTAVYYCAAENWLPQTGGYYWYDYWGQGTQVTVSS,high polyreactivity
12,QVQLVESGGGLVQAGGSLRLSCAASGSIFYPYAMGWYRQAPGKERELVAAISYNGGSTYYADSVKGRFTISRDNAKNTVYLQMNSLKPEETAVYYCAARPYHGKLDYWGQGTQVTVSS,low polyreactivity
13,QVQLVESGGGLVQAGGSLPLSSAASGLIFSWYAMGWYRQAPAKDSELVAAIDQSGDSTYYADSVKGRFTISRDNAKNTVYLQMNSLKPEDTAVYYCAAQSYDYWYDYDYWGQGTQVTVSS,high polyreactivity
14,QVQLVETGGGLVQAGGSLRLSCAASGGIFEINVMGWYRQAPGKERELVAGINWSGTSTYFADSVKGRFTISRDNAKNTVYLQMNTLTPEDTSVYYCAAESYYRYVVPYDYWGQGTQVTVSS,high polyreactivity
15,QVQLVESGGGLVQAGGSLRLSCAASGGTFPQYAMGWYRQAPGKEREFVADITSRGGTTYYADSVKGRFTISRDNAKNTVYLQMNSLKPEDTAVYYCAAVNVAYSWYDTGYDYWGQGTQVTVSS,low polyreactivity
16,QVQLVESGGGLVQAGGSLRLSCAASGFIFPYDAMGWYRQAPGKERELVAAITYRDGSTYYADSVKGRFTISRDNAKNTVYLQMNSLKPEDTAVYYCAADRYVYWDLYGYWGQGTQVTVSS,low polyreactivity

row,Sequence,polyreactivity (PSR sort gate)
1,QVHLVESGGGLDQAGGSLRLICAASGSIFDYYAMGWYRQAPGKERELVAAIDNPDSTNYADSVKGRFTLSRDNAKNTVYLQMNSLKPEDTAVYYCAASSRTVWYPGVGYYYWGQGTQVTVSS,low polyreactivity
2,QVQLVESGGGLVQAGGSLRLSCAASGFTFRFYAMGWYRQAPGKERELVATISSRGGRTYYADSVKGRFTISRDNAKNTVYLQLNSLKPEDTAVYYCAADQKSQYQGNYWGQGTQVTVSS,high polyreactivity
3,QVQLVESGGGLVQAGGSLRLSCAASGSIFPLYAMGWYRQAPGKERELVADITVSGGSTYNADSVKGRFTISRDNAKNTVYLQMNSLKPEDTAVYYCNADDRSPFPDYWWYPYDYDYWGQGTQVTVSS,low polyreactivity
4,QVQLVESGGGLVQAGGSLRLSCAASGSIFITYAMGWYRQAPGKDRELVATITSRSGGTYYADSVKGRFTISRDNAKNTVYLQMNSLKQEDTAVYYCNAVYTYPVFHGMGYWGQGTQVTVSS,high polyreactivity
5,QVQLVESGGGLVQAGGSLRLSSAASGSIFGVNAMGVYRQAPGKERELVASITGGDSTNYADSVKGRFTISRDNAKNTVYFQMNSLKPEDTAVYYCAKDHYYRYCAAEFVTEYLYGFVYEYDSWGQGTQVTVSS,low polyreactivity
6,QVQLVESCGGLVQAGGSLRLSCPASGSIFHVNVMGCYRQEPGKERELVAAITYSGGATYYADSVKGRFTISRDNAKNTVYLQMNSLKPEDTAVYYCAAYPYWFFPHYDSWGQGTLVTVSS,low polyreactivity
7,QVQLVESGGGLVQAGGSLRLSCASSGSTFEANAMGWYRQAPGKERELVAVITWTGGSTYYADSVKGRFTISRDNAKNTLYLQMNSLKPEDTAVYYCDADGVVPGRFFWPAHEYEYWGQGTQGTVSS,low polyreactivity
8,QVQLVESGGGLVQAGGSLRLSCAASGSTFVSNAMGWYRQAPGKEREFVAAISGSGGSTYYADSVKGRFTISRDNAMNTVYLQMNSLKPEVTAVYYCATAGRYGRYRTYPYRSKYDYWGQGTQVTVSS,high polyreactivity
9,QVQHVETGGGLVQAGGSLRLSCAASGLAFAMGWYSQAPGTERELVASITGSGDSTYYADSVKGRFTISRDNAKNTVYLQMNSQKPEDTAVYYCGARTYYNYAPRYYYWGQGTQVTVSS,low polyreactivity
10,QVQLVESGGGLVQAGGSLRLSCAASGSTFRRYAMGWYRQAPGKERELVAAISSGGSTYYADSVKGRFTISRDNAKNTVYLQMNSLKPEDTALYYCAKRPLKRQIPAVGYDYWGQGTQVTVSS,high polyreactivity
11,QVQLVESGGGLVQAGGSLRLSCAASGITFLFYVMGRYRQERGKERELVSTINSDDTTYYADSVKGRFTISRDNAKNTVYLQMNCLKPEDTAVYYCAADTWLWYGFDHWGQGTQVTVSS,high polyreactivity
12,QVQLVESGGGLVQAGGSLRLSCAASGRTFAYNDMGWYRQAPGKERELVAAITSVASTYYADSVKGRFTISRDNAKNTVYLQMNSLKPEDTAVYYCAADTRSLRPRYQLYGEDSWGQGTQVTVSS,low polyreactivity
13,QVQLVESGGGLVQAGGSLRLSCAASGITFEGYAMGWYRQAPRKERELVAAITGSGSTTYYADSVKGRFTISRDNAKNTVYLQMNSLKPEDTAVYYCAADVSYKLYWGQVTQVTVSS,low polyreactivity
14,QVQLVESGGGLVQAGGSLRLSCAASGFTFISNAMGWYRQAPGKERELVAAISSSGGRTYYADSVKGRFTISRDNAKNTVYLQMNRLKPEDTAVYYCNAVRSLLYSRKIEYDYWGQGTQVTVSS,low polyreactivity
15,QVQLVESGGGLVQAGGSLRLSCAASGRIFGVYAMGWYRQAPGKERELVAAITFNAGSTYYADSVKGRFTISRDNAKNTVYLQMNSLIPEDTAVYYCNAYTESWYPIYFFGWSYTDVDYWGQGTQVTVSS,low polyreactivity
